The text below walks through data of US20230115257A1 (published 2023).

Holding throughout (assay): ELISA
For orientation: An ELISA detects its analyte on a solid surface through an enzyme-linked reagent.

Test [1] concerns the target T1, SARS-CoV-2 P.1 spike protein (SARS-CoV-2 P.1 (Gamma), UniProt P0DTC2 13-1213).
Test [2] deals with SARS-CoV-2 B.1.1.7 spike protein (SARS-CoV-2 B.1.1.7 (Alpha), UniProt P0DTC2 13-1213).
The target in test [3] is T1, SARS-CoV-2 P.1 spike protein. This is another data set of the same source.

B1: 2-H7-A (antibody, V domains shown)
VH: QAYLQQSGAELVRPGASVKMSCKASGYTFTGYTMHWVKQTPRQGLEWIGAIYPENGDTSYNQKFKGKATLTVDKSSSTAYMQLSSLTSEDSAVYFCARDGYDVLYGMDYWGQGTSVTVSS
VL: DIVLTQSPASLAVSLGQRATISCRASKSVSTSGYSYMHWYQQKPGQPPKLLIYLASNLESGVPARFSGSGSGTDFTLNIHPVEEEDAATYYCQHSRELPWTFGGGTKLDIK
One may read the IC50 as the concentration that gives 50% inhibition. As for B1, the values for the concentration for half-maximal inhibition (IC50) in test [1] and in test [2] were 35.6 nM and 9.88 nM, respectively.

B2: 2-G20-A (antibody, V domains shown)
VH: EVQLQQSGPELVKPGASVKMSCKASGYTFPSYVLHWVKQKPGQGLEWIGYIYPYNDGTNYNEKFKGKATLTSDKSSSTAYMELSSLTSEDSAVYYCARGDYGDSAWFPYWGQGTLVTVSA
VL: DIVLTQSPASLAVSLGQRATISCRASKSVSTSGYSYMHWYQQKPGQPPKLLIYLASNLKSGVPARFSGGGSGTDFTLNIHPVEEEDAATYYCQLSRELPWTFGGGTKLEIK
Consider B2, for which the half-maximal inhibitory concentration (IC50) in test [1] worked out at 18.9 nM; in test [2] it was 19.2 nM.

B3: 6-O12-A (antibody, V domains shown)
VH: QVQLQQPGTELVKPGASVKLSCKASGYTFTSYWMHWVKQRPGQGLEWIGNINPSNGGTNYNEKFRSKATLTVDKSSSTAYMQLSSLTSEDSAVYYCARLGWFLPLGSWGQGTTLTVSS
VL: QIVLTQSPAIMSASLGEVITLTCSASSSVSYMHWYQQKSGTSPKLLIYSTSNLASGVPSRFSGSGSGTFYSLTISSVEAEDAADYYCHQWSGYMYTFGGGTKLEIK
Turning to B3, the 50% inhibitory concentration (IC50) in test [1] is 8.01 nM; in test [2], 7.05 nM.

B4: 10-J24-A (antibody, V domains shown)
VH: EVQLVESGGGLVKPGGSLKLSCAASGFTFSSYAMSWVRQNPAKRLEWVATISGGGGFTYYPDSVKGRFTISRDNAKNTLYLQMNSLRSEDTAMYYCARDEDGKHDYFDYWGQGTTLTVSS
VL: DIVMTQSHKFMSTSVGDRVSITCKASQDVGTAVAWYQQKPGQSPKLLIYWASTRHTGVPDRFTGSGSGTDFTLTISNVQSEDLADYFCQQYASYPLTFGGGTKLVIK
As a reminder, the EC50 is the concentration giving half of the maximal effect. As for B4, the EC50 in test [3] came to 16.1 nM. In other words, the double-digit nanomolar range.

B5: 4-C22-A (antibody, V domains shown)
VH: EVQLVESGGDLVKPGGSLKLSCAASGFTFSSFGMSWVRQTPDKRLEWVATISSGGGFTYYPDSVEGRFTISRDNAKNTLYLQMSSLKSEDTAMYYCARRLYDYDWFAYWGQGTLVTVSA
VL: DIVMTQSHKIMSTSVGDRVSITCKASQDVVTAVAWYQKKPGQSPKLLIHWASTRHTGVPDRFTGSGSGTDFTLTISNVQSEDLADYFCQQYSSYPLTFGAGTKLELK
In turn, B5 gave an EC50 in test [3] of 1.44 nM.

B6: 1-L10-A (antibody, V domains shown)
VH: EVKLEESGGGLVQPGGSMKLSCVASGFTFNNYWMNWVRQSPEKGLEWVAQMRLKSDNYATHYAESVKGRFTISRDDSKSSVYLQMNNLRAEDTGIYYCIEGYWTYWGQGTLVTVSA
VL: QIVLTQSPAIMSASLGERVTMTCTASSSVSSSYLHWYQQKPGSSPKLWIYSTSNLASGVPARFSGNGSGTSYSLTISSMEAEDAATYYCLQYHRSPPYTFGGGTKLEIK
Consider B6, for which the IC50 worked out at 11.5 nM in test [1] and 7.82 nM in test [2].

B7: 2-O12-A (antibody, V domains shown)
VH: EVQLQQSGPELVKPGASVKISCKASGYTFTDYYMNWVKQSHGKSLEWIGDINSNNGGTTYDQKFKGKATLTVDRSSSTAYMELRSLTSEDSAVYYCARRGDGHFGGFTYWGQGTLVTVSA
VL: not shown
In test [2], B7 came in with an IC50 of 87.6 nM.

B8: 4-L4-A (antibody, V domains shown)
VH: QAYLQQSGAELVRPGASVKMSCKASGYTFTSYTVHWVKQTPRQGLEWIGGIYPGNVDTSYNQNFKGKATLTVDKSSSTAYMQLSSLTSEDSAVYFCARDGYYAMDYWGQGTSVTVSS
VL: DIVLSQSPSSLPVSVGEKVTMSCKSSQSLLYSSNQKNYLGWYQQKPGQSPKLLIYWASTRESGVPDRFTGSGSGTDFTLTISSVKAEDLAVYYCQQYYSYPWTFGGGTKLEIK
For B8, the IC50 stood at 28.2 nM in test [1] and 31.6 nM in test [2].

B9: 4-N22-A (antibody, V domains shown)
VH: QVQLQQPGTELVKPGASVKLSCKASGYTFTNYWMYWVKQRPGQGLDWIGNINPSNGGTNYNEKFKSKATLTVDKSSSTAYMQLSSLTSEDSAVYYCARETGNYWGQGTTLTVSS
VL: DILMTQSPSSMSVSLGDTVSISCHASQGISSNIGWLQQKPGKSFKGLIYHGTNLEDGVPSRFSGSGSGADYSLTISSLESEDFADYYCVQYAQFPYTFGGGTKLEIK
As for B9, the values for the half-maximal inhibitory concentration (IC50) in test [1] and in test [2] were 17.2 nM and 1.51 nM, respectively.

B10: 4-M3-A (antibody, V domains shown)
VH: EVQLQQSGPELVKPGDSVKISCKASGYSFTGYFMNWVMQSHGKSLEWIGRINPNNGETFYNQKFKGKATLTVDKSSDTAHMELRSLTSEDSAVYYCARGGTGTGWGQGTTLTVSS
VL: DILMTQSPSSMSVSLGDTVSITCHASQGISSNIGWLQQKPGKSFKGLIYYGTNLEDGVPSRFSGSGSGADYSLTISSLESEDLADYYCIQYAQFPYTFGGGTKLEIK
As to B10, the IC50 in test [1] was found to be 13.5 nM; in test [2], 4.98 nM.

B11: 9-L13-A (antibody, V domains shown)
VH: QVQLKESGPGLVAPSQSLSITCTVSGFSLTSYAISWVRQPPGKGLEWLGLIWTGGGTNYNSALKSRLSISKDNSKSQIFLKMNSLQTDDTARYYCARGPPLIYYGDLYYFDYWGQGTTLTVSS
VL: DIQMTQSPSSLSASLGGKVTITCKASQDINKYIAWYQHKPGKGPRLLIHYTSTLQPGIPSRFSGSGSGRDYSFSISNLEPEDIATYYCLQYDNLWTFGGGTKLEIK
In turn, B11 gave an IC50 in test [2] of 65.3 nM.

B12: 6-C19-A (antibody, V domains shown)
VH: QIQLVQSGPELKKPGETVKISCKASGNTFTTAGMQWVQKMPGKGFKWIGWINTHSGEPKYAEDFKGRFAFSLETSASTAYLQISNLKNEDTATYFCARYGDYYYFDCWGQGTTLTVSS
VL: DIQMTQSPASLSASVGETVTITCRASGNIHNYLAWYQQKQGKSPQLLVYNAKTLADGVPSRFSGSGSGTQYSLKINSLQPEDFGSFYCQHFWTTPWSFGGGTKLEIK
Take B12: the midpoint of the response in test [3], the EC50, lay at 0.62 nM.

B13: 8-H5-A (antibody, V domains shown)
VH: QVTLKESGPGILQSSQTLSLTCSLSGFSLSTSGMGVSWVRQPSGKGLEWLAHIYWDDDKRYTPSLKSRLTISTDSSRKQVFLKITSVDTADTATYYCARRDLHDYDGWFAYWGQGTLVTVSA
VL: DIVMTQSQKFMSTAVGDRVSVTCKASQNVGTNVAWYQQKPGQSPKALIYSASFRYSGVPDRFSGSGSGTDFTLTISNVQSEDLAEYFCQQYNSYPLTFGSGTKLEIK
As for B13, the values for the IC50 in test [1] and in test [2] were 30.5 nM and 15.4 nM, respectively.
